According to patent US20240287161A1 (NATIONAL UNIVERSITY CORPORATION TOTTORI UNIVERSITY, published 2024):

Experiments:
[1] = target: T1, HCoV-HKU1 trimeric S protein (amino acids 13-1293) with T4 foldon, histidine tag and strep-tag (HCoV-HKU1, UniProt Q5MQD0 13-1297); assay: ELISA on coated S-trimeric antigen, anti-human IgG-HRP [Human IgG1, NT-108]
T1 sequence: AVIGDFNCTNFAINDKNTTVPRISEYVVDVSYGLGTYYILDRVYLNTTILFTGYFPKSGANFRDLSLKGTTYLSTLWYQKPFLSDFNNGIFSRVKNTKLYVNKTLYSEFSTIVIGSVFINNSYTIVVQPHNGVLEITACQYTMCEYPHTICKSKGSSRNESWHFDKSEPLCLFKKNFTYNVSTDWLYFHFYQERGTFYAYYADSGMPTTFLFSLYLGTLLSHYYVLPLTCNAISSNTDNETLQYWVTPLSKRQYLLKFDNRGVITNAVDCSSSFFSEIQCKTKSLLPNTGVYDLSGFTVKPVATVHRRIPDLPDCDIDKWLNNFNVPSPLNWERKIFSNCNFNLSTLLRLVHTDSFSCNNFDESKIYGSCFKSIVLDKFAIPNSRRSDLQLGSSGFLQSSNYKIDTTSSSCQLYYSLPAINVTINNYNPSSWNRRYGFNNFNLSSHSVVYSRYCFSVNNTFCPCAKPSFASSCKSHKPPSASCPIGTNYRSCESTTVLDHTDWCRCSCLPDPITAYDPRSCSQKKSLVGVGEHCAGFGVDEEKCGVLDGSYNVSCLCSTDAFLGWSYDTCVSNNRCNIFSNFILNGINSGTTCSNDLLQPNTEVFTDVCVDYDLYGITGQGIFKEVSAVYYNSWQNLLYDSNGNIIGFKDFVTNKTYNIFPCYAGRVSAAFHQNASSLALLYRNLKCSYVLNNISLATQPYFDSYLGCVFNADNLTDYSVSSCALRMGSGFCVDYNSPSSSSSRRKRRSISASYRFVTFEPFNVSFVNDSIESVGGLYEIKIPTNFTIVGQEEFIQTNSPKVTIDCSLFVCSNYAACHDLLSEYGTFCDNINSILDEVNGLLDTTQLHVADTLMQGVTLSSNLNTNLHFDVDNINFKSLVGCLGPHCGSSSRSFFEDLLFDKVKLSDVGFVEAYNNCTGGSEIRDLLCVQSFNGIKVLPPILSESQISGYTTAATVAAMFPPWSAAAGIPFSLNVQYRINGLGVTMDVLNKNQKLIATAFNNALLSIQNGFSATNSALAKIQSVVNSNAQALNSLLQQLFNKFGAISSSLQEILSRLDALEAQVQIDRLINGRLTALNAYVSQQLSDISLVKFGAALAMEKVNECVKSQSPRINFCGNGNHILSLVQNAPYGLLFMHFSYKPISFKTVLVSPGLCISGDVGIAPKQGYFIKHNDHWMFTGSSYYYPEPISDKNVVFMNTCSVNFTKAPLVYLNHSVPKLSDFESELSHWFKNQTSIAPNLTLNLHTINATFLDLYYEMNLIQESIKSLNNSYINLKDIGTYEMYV

[2] = target: T2, HCoV-NL63 trimeric S protein (amino acids 22-1293) with T4 foldon, histidine tag and strep-tag (HCoV-NL63, UniProt Q6Q1S2 23-1293); assay: as above
T2 sequence: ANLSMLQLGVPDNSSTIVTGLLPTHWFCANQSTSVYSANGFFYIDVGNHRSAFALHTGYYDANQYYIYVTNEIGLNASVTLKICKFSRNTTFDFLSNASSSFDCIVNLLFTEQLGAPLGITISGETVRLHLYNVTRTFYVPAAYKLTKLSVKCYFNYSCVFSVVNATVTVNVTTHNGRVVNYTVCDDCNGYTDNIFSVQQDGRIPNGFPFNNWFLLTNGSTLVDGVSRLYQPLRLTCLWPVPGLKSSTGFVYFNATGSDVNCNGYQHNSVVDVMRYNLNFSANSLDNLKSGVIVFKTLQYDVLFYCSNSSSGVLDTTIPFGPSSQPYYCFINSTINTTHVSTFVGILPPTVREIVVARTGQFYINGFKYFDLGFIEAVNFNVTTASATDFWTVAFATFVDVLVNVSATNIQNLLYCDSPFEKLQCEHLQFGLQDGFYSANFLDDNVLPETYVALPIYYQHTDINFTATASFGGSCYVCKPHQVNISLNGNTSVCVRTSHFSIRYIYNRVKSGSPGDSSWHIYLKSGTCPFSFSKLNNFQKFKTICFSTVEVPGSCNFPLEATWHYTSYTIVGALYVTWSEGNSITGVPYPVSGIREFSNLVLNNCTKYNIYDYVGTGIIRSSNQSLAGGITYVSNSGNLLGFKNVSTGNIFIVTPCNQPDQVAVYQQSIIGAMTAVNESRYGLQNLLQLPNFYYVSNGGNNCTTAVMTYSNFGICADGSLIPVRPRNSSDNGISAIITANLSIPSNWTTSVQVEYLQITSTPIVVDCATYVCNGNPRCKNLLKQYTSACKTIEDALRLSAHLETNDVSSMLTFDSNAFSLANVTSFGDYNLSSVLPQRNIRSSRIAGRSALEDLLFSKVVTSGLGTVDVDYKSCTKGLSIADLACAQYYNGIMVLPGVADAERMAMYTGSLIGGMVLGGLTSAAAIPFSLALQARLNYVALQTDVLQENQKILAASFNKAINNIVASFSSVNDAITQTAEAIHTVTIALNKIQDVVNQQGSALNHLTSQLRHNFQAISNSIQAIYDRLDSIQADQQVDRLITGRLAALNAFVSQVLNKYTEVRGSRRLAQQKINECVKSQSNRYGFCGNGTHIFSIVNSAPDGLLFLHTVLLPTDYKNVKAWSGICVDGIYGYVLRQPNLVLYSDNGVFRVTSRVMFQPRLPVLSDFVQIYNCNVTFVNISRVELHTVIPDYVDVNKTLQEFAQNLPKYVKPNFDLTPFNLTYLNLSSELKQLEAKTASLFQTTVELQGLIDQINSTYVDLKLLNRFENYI

B1: NT-108 (recombinant human IgG1/kappa antibody) (antibody, V domains shown)
VH: EVQLQQSGPGLVKPSQTLSLTCSISGDSVSSNSAAWNWIRQSPSRGLEWLGRTYYRSKWYNDYAGTVKSRIAINPDTSKNQFSLHLNSVTPEDTAVYFCARVISVAGYAFDIWGQGTMVTVSS
VL: EIVLTQSPGTLSLSPGERATLSCRASQSVSSTFLAWYQQKPGQAPRLLIYGASYMATGIPDRFSGSGSGTDFTLTISRLEPEDFAVYYCQQYGSSLTFGGGTKLEIK
binding result [1]: no binding (tested: 1000 ng/ml)
binding result [2]: no binding (tested: 1000 ng/ml)
